Measurements from paper PMC5608758, “A brain-targeting lipidated peptide for neutralizing RNA-mediated toxicity in Polyglutamine Diseases” (Scientific Reports, 2017).
Entries after “also recorded” stand apart in the source; their conditions may differ. Blank lines part the entries; values can stand above or below the compound they belong to. Non-standard residues stand in square brackets, D forms with d. Residues, ends and D or L forms follow the SMILES beside them. hArg = N=C(N)NCCCC[C@H](N)C(=O)O; Orn = NCCC[C@H](N)C(=O)O

How the values were obtained:
expanded MJD CAG78 RNA = assay: Isothermal titration calorimetry binding assay, expanded CAG RNA; conditions: ITC, 25 °C, 20 mM MOPS pH 7.0, 300 mM NaCl; 0.7 mM peptide titrated into 0.5 µM MJD CAG78 RNA; one binding site model; mean ± S.E.M., at least 3 independent experiments
Protocol: Experiments were carried out using a MicroCal iTC200 isothermal titration calorimeter (GE Healthcare) at 25 °C. Data were analyzed using the Origin® scientific plotting software version 7 (Microcal Software Inc.). All RNAs and peptides were dissolved in binding buffer (20 mM MOPS, pH 7.0; 300 mM NaCl) and 0.7 mM of peptide was titrated into 0.5 µM of RNA for each experiment. The concentration of RNA was estimated with appropriate extinction coefficients at 260 nm on a Nanodrop 2000 (Thermo Scientific). A reference power of 8 μcal/s was used with an initial 0.5 µl of injection of peptide followed by 2 µl for all subsequent titrations points with a 60 sec initial equilibrium delay and 150 sec pause between injections. The samples were stirred at a speed of 1000 rpm throughout the experiment. The thermal titration data were fitted to the ‘one binding site model’ to determine the dissociation constant (KD). Each experiment was repeated at least 3 times with consistent results obtained.

P3V8 = assay: ITC; conditions: ITC (MicroCal iTC200): 20 mM MOPS pH 7.0, 300 mM NaCl, 25 C; 0.7 mM peptide titrated into 0.5 uM RNA; one-site model; errors are SEM, n>=3
P3V7 = assay: ITC; conditions: ITC (MicroCal iTC200): 20 mM MOPS pH 7.0, 300 mM NaCl, 25 C; 0.7 mM peptide titrated into 0.5 uM RNA; one-site model; errors are SEM, n>=3
P3MT4 = assay: ITC; conditions: ITC (MicroCal iTC200): 20 mM MOPS pH 7.0, 300 mM NaCl, 25 C; 0.7 mM peptide titrated into 0.5 uM RNA; one-site model; errors are SEM, n>=3
P3 (P3WT) = assay: ITC; conditions: ITC (MicroCal iTC200): 20 mM MOPS pH 7.0, 300 mM NaCl, 25 C; 0.7 mM peptide titrated into 0.5 uM RNA; one-site model; errors are SEM, n>=3
P3MT5 = assay: ITC; conditions: ITC (MicroCal iTC200): 20 mM MOPS pH 7.0, 300 mM NaCl, 25 C; 0.7 mM peptide titrated into 0.5 uM RNA; one-site model; errors are SEM, n>=3
P3V4 = assay: ITC; conditions: ITC (MicroCal iTC200): 20 mM MOPS pH 7.0, 300 mM NaCl, 25 C; 0.7 mM peptide titrated into 0.5 uM RNA; one-site model; errors are SEM, n>=3
P3V6 = assay: ITC; conditions: ITC (MicroCal iTC200): 20 mM MOPS pH 7.0, 300 mM NaCl, 25 C; 0.7 mM peptide titrated into 0.5 uM RNA; one-site model; errors are SEM, n>=3
P3V9 = assay: ITC; conditions: ITC (MicroCal iTC200): 20 mM MOPS pH 7.0, 300 mM NaCl, 25 C; 0.7 mM peptide titrated into 0.5 uM RNA; one-site model; errors are SEM, n>=3
P3V5 = assay: ITC; conditions: ITC (MicroCal iTC200): 20 mM MOPS pH 7.0, 300 mM NaCl, 25 C; 0.7 mM peptide titrated into 0.5 uM RNA; one-site model; errors are SEM, n>=3
P3V1 = assay: ITC; conditions: ITC (MicroCal iTC200): 20 mM MOPS pH 7.0, 300 mM NaCl, 25 C; 0.7 mM peptide titrated into 0.5 uM RNA; one-site model; errors are SEM, n>=3
P3MT3 = assay: ITC; conditions: ITC (MicroCal iTC200): 20 mM MOPS pH 7.0, 300 mM NaCl, 25 C; 0.7 mM peptide titrated into 0.5 uM RNA; one-site model; errors are SEM, n>=3
P3V3 = assay: ITC; conditions: ITC (MicroCal iTC200): 20 mM MOPS pH 7.0, 300 mM NaCl, 25 C; 0.7 mM peptide titrated into 0.5 uM RNA; one-site model; errors are SEM, n>=3
P3V2 = assay: ITC; conditions: ITC (MicroCal iTC200): 20 mM MOPS pH 7.0, 300 mM NaCl, 25 C; 0.7 mM peptide titrated into 0.5 uM RNA; one-site model; errors are SEM, n>=3
P3MT2 = assay: ITC; conditions: ITC (MicroCal iTC200): 20 mM MOPS pH 7.0, 300 mM NaCl, 25 C; 0.7 mM peptide titrated into 0.5 uM RNA; one-site model; errors are SEM, n>=3
P3MT1 = assay: ITC; conditions: ITC (MicroCal iTC200): 20 mM MOPS pH 7.0, 300 mM NaCl, 25 C; 0.7 mM peptide titrated into 0.5 uM RNA; one-site model; errors are SEM, n>=3

KD (expanded MJD CAG78 RNA): No binding
Compound: CC[C@H](C)[C@H](NC(=O)CNC(=O)[C@H](CCCCN)NC(=O)[C@H](CO)NC(=O)[C@H](CCCCNC(=N)N)NC(=O)CNC(=O)[C@H](CC(=O)O)NC(C)=O)C(=O)N[C@@H](C)C(=O)N[C@@H](Cc1ccc(O)cc1)C(=O)N[C@H](C(=O)N[C@@H](CCC(=O)O)C(=O)N[C@@H](Cc1ccccc1)C(=O)N[C@@H](CCCCN)C(N)=O)[C@@H](C)CC [P3V14] (Ac-DG[hArg]SKGIAYIEFK-NH2)

KD (expanded MJD CAG78 RNA): No binding
Compound: CC[C@H](C)[C@H](NC(=O)CNC(=O)[C@H](CCCCNC(=N)N)NC(=O)[C@H](CO)NC(=O)[C@H](CCCCN)NC(=O)CNC(=O)[C@H](CC(=O)O)NC(C)=O)C(=O)N[C@@H](C)C(=O)N[C@@H](Cc1ccc(O)cc1)C(=O)N[C@H](C(=O)N[C@@H](CCC(=O)O)C(=O)N[C@@H](Cc1ccccc1)C(=O)N[C@@H](CCCCN)C(N)=O)[C@@H](C)CC [P3V15] (Ac-DGKS[hArg]GIAYIEFK-NH2)

KD (expanded MJD CAG78 RNA): No binding
Compound: CC[C@H](C)[C@H](NC(=O)CNC(=O)[C@H](CCCCN)NC(=O)[C@H](CO)NC(=O)[C@H](CCCN)NC(=O)CNC(=O)[C@H](CC(=O)O)NC(C)=O)C(=O)N[C@@H](C)C(=O)N[C@@H](Cc1ccc(O)cc1)C(=O)N[C@H](C(=O)N[C@@H](CCC(=O)O)C(=O)N[C@@H](Cc1ccccc1)C(=O)N[C@@H](CCCCN)C(N)=O)[C@@H](C)CC [P3V16] (Ac-DG[Orn]SKGIAYIEFK-NH2)

KD (expanded MJD CAG78 RNA): No binding
Compound: CC[C@H](C)[C@H](NC(=O)CNC(=O)[C@H](CCCN)NC(=O)[C@H](CO)NC(=O)[C@H](CCCCN)NC(=O)CNC(=O)[C@H](CC(=O)O)NC(C)=O)C(=O)N[C@@H](C)C(=O)N[C@@H](Cc1ccc(O)cc1)C(=O)N[C@H](C(=O)N[C@@H](CCC(=O)O)C(=O)N[C@@H](Cc1ccccc1)C(=O)N[C@@H](CCCCN)C(N)=O)[C@@H](C)CC [P3V17] (Ac-DGKS[Orn]GIAYIEFK-NH2)

Compound: Ac-DGKSKGIAYIEFKDGKSKGIAYIEFK-NH2 [P3V20]
KD (expanded MJD CAG78 RNA): No binding; also recorded: did not show any binding

Compound: Ac-DGKSKGIAYIEFKGDGKSKGIAYIEFK-NH2 [P3V21]
KD (expanded MJD CAG78 RNA): No binding; also recorded: did not show any binding

Kd (expanded MJD CAG78 RNA): 2.34 ± 0.49 µM
Compound: Ac-DGRSRGIAYIEFK-NH2 [P3V9]

Compound: MJD CAA/G78 RNA (expanded, interrupted)
Kd (P3V8): 2.94 µM

Compound: MJD CAG27 RNA (unexpanded)
Kd (P3V8): 2.19 µM

Compound: MJD CAG78 RNA (expanded)
Kd (P3V7): 3.67 µM
Kd (P3MT4): 17.4 µM
Kd (P3 (P3WT)): 8.37 µM
Kd (P3MT5): 51.3 µM
Kd (P3V4): 4.44 µM
Kd (P3V6): 23.8 µM
Kd (P3V9): 2.34 µM
Kd (P3V5): 0.86 µM
Kd (P3V1): 2 µM
Kd (P3V8): 0.33 µM
Kd (P3MT3): 16.6 µM
Kd (P3V3): 1.74 µM
Kd (P3V2): 2.21 µM
Kd (P3MT2): 101 µM
Kd (P3MT1): 31.3 µM
